Laboratory results from US20210155682A1, “COMPOSITIONS AND METHODS FOR REDUCTION OF LIPOPROTEIN A FORMATION AND TREATMENT OF AORTIC VALVE SCLEROSIS AND AORTIC STENOSIS” (Abcentra, LLC, priority 2018, published 2021).
“Also recorded” adds a separate entry of the source.

Legend:
Flu-LDL = target: T1, Flu-LDL (Homo sapiens, UniProt P04114); assay: Antibody interference with Flu-LDL fluorescence (Flu-LDL alone); settings: Flu-LDL 100 nM; orticumab 0.1-1000 nM; FIG. 5
T1 construct: from tissue; host or cells: plasma of a healthy donor

[1] = target: T2, non-covalent binding between apo(a) and LDL (Homo sapiens, UniProt P04114); assay: Fluorescence assay of non-covalent binding: quenching of Flu-LDL by 17K r-apo(a)
T2 construct: made in house; host or cells: apo(a): stably-expressing HEK293 cell lines; LDL: plasma of a healthy donor

[2] = target: T3, covalent binding between apo(a) and LDL (Lp(a) formation) (Homo sapiens, UniProt P04114); assay: Covalent Lp(a) assembly assay, Western blot (% r-Lp(a)); type: biochemical; settings: for percent inhibition of Lp(a) formation: FIG. 10; for Reduction of covalent Lp(a) compared with control antibodies: 4 hours, orticumab 0.01-10 μM, FIG. 8
T3 construct: made in house; host or cells: apo(a): stably-expressing HEK293 cell lines; LDL: plasma of a healthy donor
Protocol: Purified LDL (100 nM) and 17K apo(a) (5 nM) were incubated with conditioned serum-free medium (OptiMEM; Gibco) from HEK293 cells in the presence of 0, 0.01, 0.1, 1.0, and 10 μM of orticumab at 37° C. The reactions were mixed thoroughly every hour and stopped after 4 or 8 hrs by adding 4×SDS-PAGE sample buffer. Samples were then boiled for 5 min at 95° C. and subjected to SDS-PAGE on 6% polyacrylamide gel. After electrophoresis, separated proteins were electroblotted onto a PVDF membrane, blocked, and incubated with a monoclonal antibody (A5) specific for apo(a). HRP-conjugated goat anti-mouse IgG secondary antibody was used to develop a signal in the presence of a chemiluminescence reagent and images were captured using a ChemiDoc system (Bio-Rad). Band intensity (BI) of western-blots were quantified using IMAGELAB software for recombinant Lp(a) formation using the following equation: % r-Lp(a)=BI(Lp(a))/[BI(Lp(a))+BI(apo(a))]. A Two-Way ANOVA with Tukey post-hoc test was used to analyze the data in GraphPad Prism 7.0.
Covalent binding between apo(a) and LDL was assessed over time by appearance of Lp(a) protein on a Western blot. Using serum-free HEK293 cell-conditioned medium, Lp(a) formation was evaluated after incubation of 17K r-apo(a) with LDL from 0-8 hours; isolated Lp(a), 17K apo(a) alone, and media alone were used as controls.
Next, the effect of orticumab on inhibition of covalent binding between apo(a) and LDL was assessed by Western blot analysis. 17K r-apo(a) (5 nM) was incubated with LDL (100 nM) in serum free HEK293 cell-conditioned medium for 4 hours at 37° C. in the presence of orticumab at 0.1, 1, 5, and 10 μM.
To determine whether inhibition of Lp(a) formation occurs at a later time point when Lp(a) formation appears to be maximal, the Western blot experiments were repeated after a 0- and 8-hour incubation of 5 nM 17K r-apo(a) and 100 nM LDL in the presence of orticumab at 0.01, 0.1, 1, and 10 μM in serum free HEK293 cell-conditioned medium (FIG. 9). The results were then quantified (FIG. 10) and analyzed.

[3] = target: purified human LDL, carrying apolipoprotein B100 (human) (UniProt P04114); assay: Western blot of covalent assembly of 5 nM 17K r-apo(a) with 100 nM LDL, 8 h, 10 µM orticumab
[4] = target: purified human LDL, carrying apolipoprotein B100 (human) (UniProt P04114); assay: Western blot of covalent assembly of 5 nM 17K r-apo(a) with 100 nM LDL, 8 h, 0.1 µM orticumab
[5] = target: purified human LDL, carrying apolipoprotein B100 (human) (UniProt P04114); assay: Western blot of covalent assembly of 5 nM 17K r-apo(a) with 100 nM LDL, 8 h
[6] = target: purified human LDL, carrying apolipoprotein B100 (human) (UniProt P04114); assay: Western blot of covalent assembly of 5 nM 17K r-apo(a) with 100 nM LDL, 8 h, orticumab at '1' (unit missing, by context 1 µM)

T2 sequence (P04114 28-4563): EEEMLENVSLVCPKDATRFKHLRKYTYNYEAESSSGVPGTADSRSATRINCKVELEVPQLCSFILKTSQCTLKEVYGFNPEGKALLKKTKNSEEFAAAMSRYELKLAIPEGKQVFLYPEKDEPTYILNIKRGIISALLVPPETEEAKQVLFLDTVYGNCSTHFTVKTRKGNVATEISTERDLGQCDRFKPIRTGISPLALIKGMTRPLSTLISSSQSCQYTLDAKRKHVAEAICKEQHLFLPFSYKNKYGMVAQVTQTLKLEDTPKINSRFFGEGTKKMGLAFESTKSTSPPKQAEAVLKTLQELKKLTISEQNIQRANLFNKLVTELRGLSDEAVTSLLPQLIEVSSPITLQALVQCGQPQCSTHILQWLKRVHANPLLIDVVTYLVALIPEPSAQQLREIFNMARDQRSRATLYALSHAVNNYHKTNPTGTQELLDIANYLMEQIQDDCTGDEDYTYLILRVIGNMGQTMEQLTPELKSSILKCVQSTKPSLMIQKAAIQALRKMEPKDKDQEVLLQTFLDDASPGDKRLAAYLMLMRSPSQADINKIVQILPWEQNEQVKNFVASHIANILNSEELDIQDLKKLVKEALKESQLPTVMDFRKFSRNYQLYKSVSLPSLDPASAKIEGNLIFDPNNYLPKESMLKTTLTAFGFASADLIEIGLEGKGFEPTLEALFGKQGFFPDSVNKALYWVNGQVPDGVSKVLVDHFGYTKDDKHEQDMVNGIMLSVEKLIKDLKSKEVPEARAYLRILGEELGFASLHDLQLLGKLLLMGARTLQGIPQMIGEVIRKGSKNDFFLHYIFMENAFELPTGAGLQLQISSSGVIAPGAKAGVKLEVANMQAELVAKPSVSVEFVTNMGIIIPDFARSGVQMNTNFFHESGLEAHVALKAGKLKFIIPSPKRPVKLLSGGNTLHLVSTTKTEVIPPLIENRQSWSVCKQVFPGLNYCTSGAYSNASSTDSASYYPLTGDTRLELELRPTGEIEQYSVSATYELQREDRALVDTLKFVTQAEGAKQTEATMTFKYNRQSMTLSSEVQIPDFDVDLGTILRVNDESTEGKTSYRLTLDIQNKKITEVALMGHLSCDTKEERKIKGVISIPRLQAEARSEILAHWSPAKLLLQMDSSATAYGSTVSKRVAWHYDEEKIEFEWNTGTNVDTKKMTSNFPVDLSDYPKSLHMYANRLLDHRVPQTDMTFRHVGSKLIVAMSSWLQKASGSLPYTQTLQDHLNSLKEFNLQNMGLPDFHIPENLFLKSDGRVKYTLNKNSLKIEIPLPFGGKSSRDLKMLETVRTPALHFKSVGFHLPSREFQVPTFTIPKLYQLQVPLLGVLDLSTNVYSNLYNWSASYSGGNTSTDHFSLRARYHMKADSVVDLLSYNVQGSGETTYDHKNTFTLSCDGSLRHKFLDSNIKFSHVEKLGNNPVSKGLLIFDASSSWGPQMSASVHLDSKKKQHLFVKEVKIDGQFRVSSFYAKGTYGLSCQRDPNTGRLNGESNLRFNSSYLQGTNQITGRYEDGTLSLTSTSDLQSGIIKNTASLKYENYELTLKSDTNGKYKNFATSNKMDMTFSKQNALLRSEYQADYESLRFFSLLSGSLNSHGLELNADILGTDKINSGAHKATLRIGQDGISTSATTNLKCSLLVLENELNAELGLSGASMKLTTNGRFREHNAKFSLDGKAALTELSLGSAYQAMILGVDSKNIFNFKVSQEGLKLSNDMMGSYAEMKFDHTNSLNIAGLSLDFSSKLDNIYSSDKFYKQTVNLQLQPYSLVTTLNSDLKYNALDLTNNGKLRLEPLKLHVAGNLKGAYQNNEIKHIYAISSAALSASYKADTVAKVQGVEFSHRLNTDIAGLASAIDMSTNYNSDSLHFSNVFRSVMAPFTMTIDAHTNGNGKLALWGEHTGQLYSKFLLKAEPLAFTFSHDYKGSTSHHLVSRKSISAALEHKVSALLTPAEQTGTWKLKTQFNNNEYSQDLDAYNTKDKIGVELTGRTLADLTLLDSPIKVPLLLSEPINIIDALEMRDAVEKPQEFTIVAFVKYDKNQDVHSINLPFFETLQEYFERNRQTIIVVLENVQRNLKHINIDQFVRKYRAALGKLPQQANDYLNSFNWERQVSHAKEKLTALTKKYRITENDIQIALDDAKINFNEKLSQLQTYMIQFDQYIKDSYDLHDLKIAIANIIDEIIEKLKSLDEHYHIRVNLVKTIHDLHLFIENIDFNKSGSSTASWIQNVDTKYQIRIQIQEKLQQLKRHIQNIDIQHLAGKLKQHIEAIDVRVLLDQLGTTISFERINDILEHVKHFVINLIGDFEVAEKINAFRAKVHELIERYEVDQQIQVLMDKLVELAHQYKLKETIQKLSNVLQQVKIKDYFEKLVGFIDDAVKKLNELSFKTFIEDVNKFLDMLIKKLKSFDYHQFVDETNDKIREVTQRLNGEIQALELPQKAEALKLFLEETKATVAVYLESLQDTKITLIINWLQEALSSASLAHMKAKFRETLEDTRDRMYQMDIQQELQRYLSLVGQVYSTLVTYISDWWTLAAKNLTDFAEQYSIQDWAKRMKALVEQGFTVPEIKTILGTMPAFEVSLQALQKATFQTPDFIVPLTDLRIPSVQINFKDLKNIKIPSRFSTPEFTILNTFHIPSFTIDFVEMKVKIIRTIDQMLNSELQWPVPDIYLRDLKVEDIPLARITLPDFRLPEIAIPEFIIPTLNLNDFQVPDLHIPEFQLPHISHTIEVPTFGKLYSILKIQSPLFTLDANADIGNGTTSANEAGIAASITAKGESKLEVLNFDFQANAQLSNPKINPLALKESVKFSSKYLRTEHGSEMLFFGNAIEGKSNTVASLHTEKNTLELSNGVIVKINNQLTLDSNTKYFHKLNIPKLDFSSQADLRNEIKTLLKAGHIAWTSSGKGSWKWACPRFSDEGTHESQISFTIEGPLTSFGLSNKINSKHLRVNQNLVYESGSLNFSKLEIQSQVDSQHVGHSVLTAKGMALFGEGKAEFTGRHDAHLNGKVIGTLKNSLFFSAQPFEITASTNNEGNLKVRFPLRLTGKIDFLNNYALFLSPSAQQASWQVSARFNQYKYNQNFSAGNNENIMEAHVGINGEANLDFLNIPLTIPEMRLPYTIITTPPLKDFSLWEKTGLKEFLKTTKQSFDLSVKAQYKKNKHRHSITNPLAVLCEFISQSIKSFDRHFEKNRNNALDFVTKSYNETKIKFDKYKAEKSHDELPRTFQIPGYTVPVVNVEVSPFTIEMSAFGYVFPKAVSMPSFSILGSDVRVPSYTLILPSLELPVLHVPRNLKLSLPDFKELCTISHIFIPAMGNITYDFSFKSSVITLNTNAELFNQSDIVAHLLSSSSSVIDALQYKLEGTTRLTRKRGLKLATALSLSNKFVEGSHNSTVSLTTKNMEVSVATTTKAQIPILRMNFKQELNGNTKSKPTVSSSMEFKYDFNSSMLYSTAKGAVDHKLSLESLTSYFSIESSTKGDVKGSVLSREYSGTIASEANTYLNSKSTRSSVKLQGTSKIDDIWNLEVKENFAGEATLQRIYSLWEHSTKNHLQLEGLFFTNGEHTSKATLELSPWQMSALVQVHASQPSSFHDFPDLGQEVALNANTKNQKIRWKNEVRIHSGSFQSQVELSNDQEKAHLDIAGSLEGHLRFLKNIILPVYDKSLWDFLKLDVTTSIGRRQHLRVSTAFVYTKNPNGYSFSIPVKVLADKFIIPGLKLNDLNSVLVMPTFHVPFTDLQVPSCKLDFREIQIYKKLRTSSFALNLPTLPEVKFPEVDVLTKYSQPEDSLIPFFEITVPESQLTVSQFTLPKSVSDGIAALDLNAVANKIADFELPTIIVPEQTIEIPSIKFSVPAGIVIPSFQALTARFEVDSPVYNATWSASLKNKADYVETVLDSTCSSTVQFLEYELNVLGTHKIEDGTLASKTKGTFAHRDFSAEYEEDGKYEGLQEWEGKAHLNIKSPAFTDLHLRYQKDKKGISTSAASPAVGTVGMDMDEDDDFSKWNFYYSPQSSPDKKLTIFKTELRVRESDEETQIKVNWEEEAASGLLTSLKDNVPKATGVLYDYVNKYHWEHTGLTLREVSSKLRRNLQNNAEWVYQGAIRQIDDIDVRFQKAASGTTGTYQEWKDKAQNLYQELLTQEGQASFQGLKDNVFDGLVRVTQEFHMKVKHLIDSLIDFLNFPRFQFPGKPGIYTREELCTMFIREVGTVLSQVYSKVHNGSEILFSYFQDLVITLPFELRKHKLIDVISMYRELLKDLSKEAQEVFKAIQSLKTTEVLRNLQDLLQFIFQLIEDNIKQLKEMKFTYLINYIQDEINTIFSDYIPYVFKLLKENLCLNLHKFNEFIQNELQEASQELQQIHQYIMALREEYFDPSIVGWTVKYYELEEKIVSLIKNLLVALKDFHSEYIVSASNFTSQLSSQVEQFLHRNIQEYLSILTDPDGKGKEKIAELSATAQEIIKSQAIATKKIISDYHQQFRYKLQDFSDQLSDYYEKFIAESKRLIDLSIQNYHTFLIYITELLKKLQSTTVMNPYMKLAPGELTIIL
purified human LDL, carrying apolipoprotein B100 (human), sequence (P04114 28-4563): as above
T3 sequence (P04114 28-4563): as above
T1 sequence (P04114 28-4563): as above

Row | percent inhibition of Lp(a) formation [3] | percent inhibition of Lp(a) formation [4] | percent inhibition of Lp(a) formation [5] | percent inhibition of Lp(a) formation [6] | Substance | Effect on fluorescence of Flu-LDL alone (Flu-LDL) | Concentration at which the antibody interfered with fluorescence ([1]; Flu-LDL 30 nM, 17K r-apo(a) 300 nM, FIG. 4A) | Concentration of maximum response in dose-response titration ([1]; de-quenching of Flu-LDL fluorescence, FIG. 3) | Inhibition of non-covalent binding between apo(a) and LDL, overall statement ([1]; fluorescence assay, summary of Example 3) | Alleviation of quenching of Flu-LDL by 17K apo(a), antibody titration ([1]; orticumab 0-1000 nM, Flu-LDL 50 nM, 17K r-apo(a) 500 nM, FIG. 3) | Inhibition of non-covalent apo(a)/Flu-LDL binding in 17K apo(a) titration ([1]; orticumab 1000 nM, Flu-LDL 50 nM, 17K r-apo(a) 0-1000 nM, FIG. 2) | De-quenching of Flu-LDL fluorescence at lower concentrations ([1]; orticumab 0.4096-100 nM, Flu-LDL 30 nM, 17K r-apo(a) 300 nM, FIG. 4A) | percent inhibition of Lp(a) formation ([2]; 0.01 μM orticumab, 8-hour incubation, 17K r-apo(a) 5 nM, LDL 100 nM) | percent inhibition of Lp(a) formation ([2]; 0.1 μM orticumab, 8-hour incubation, 17K r-apo(a) 5 nM, LDL 100 nM) | percent inhibition of Lp(a) formation ([2]; 10 μM orticumab, 8-hour incubation, 17K r-apo(a) 5 nM, LDL 100 nM) | Lp(a) band on Western blot ([2]; 10 μM orticumab, 4 hours at 37° C., 17K r-apo(a) 5 nM, LDL 100 nM, FIG. 7) | Inhibition of Lp(a) formation, in words ([2]; 8-hour incubation, orticumab 0.01, 0.1, 1 and 10 μM, FIG. 9, 10) | Reduction of covalent Lp(a) compared with control antibodies ([2]; 17K r-apo(a) 5 nM, LDL 100 nM) | Reduction of covalent Lp(a) compared with control antibodies ([2]; 17K r-apo(a) 5 nM, LDL 100 nM, listed as Orticumab) | Inhibition of covalent binding between apo(a) and LDL, overall statement ([2]; orticumab 0.01, 0.1, 1 and 10 μM, Western blot) | percent inhibition of Lp(a) formation ([2]; orticumab "At 1" (unit not given), 8-hour incubation, 17K r-apo(a) 5 nM, LDL 100 nM)
1 | – | – | – | – | orticumab: human monoclonal antibody against apoB100 epitope P45 (residues 661-680); heavy chain SEQ ID No: 10, light chain SEQ ID No: 11 | increased the fluorescence of Flu-LDL to a higher level; also recorded: enhanced fluorescent signal | ≤ 0.4 nM | 1000 nM | very effective in inhibiting non-covalent binding | able to alleviate the quenching; also recorded: much lower than that of the polyclonal anti-apoB antibody or EACA | inhibited the binding; also recorded: on par with the anti-apo(a) antibody; also recorded: interfered with the apo(a) and Flu-LDL interaction | not able to de-quench; also recorded: no effect on de-quenching the fluorescence | 21.37% | 25.8% | 73.46% | Disappearance of the Lp(a) band | significantly inhibited Lp(a) formation; also recorded: decreased Lp(a) covalent assembly at the lowest concentration tested | behaves similarly in reducing covalent Lp(a) | as effective as the anti-apoB or anti-apo(a) control antibodies | inhibited | 34.99%
2 | 73.5% | 25.8% | 21.4% | 35% | orticumab (antibody) | – | – | – | – | – | – | – | – | – | – | – | – | – | – | – | –
